Measured values taken from US20130084292A1.

Target: Gp96 receptor (heat shock protein 90 kDa beta (Grp94 or Gp96), member 1 [Homo sapiens]) (Homo sapiens) (UniProt P14625)
Test: cell-based or functional assay

Chain of Gp96 receptor (heat shock protein 90 kDa beta (Grp94 or Gp96), member 1 [Homo sapiens]) (Homo sapiens) (P14625 22-803 limits assumed): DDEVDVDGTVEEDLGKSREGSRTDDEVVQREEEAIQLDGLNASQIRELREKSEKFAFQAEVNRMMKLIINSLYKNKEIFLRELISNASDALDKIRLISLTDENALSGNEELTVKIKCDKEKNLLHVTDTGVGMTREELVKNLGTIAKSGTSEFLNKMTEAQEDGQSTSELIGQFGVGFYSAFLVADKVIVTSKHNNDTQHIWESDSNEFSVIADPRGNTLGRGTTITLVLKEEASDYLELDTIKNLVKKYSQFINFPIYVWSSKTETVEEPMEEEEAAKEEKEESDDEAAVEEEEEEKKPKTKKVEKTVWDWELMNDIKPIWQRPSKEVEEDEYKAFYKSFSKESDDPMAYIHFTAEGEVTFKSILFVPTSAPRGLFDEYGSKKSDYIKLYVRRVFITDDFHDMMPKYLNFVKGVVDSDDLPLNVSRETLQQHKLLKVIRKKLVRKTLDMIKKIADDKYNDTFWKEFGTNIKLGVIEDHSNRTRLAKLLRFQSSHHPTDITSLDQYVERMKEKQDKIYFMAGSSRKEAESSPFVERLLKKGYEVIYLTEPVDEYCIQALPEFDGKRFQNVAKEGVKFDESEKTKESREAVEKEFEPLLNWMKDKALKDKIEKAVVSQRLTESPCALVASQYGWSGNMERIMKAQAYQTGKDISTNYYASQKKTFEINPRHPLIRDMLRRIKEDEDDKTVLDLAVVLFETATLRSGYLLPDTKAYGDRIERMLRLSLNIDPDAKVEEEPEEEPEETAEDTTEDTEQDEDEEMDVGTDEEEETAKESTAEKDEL

Substance “OmpA outer membrane protein of E. coli AIEC strain LF82 (from UniProt P0A910 22-346) (ligand)” has an invasion level of the LF82-ΔompA mutant on IEC pretreated with LF82 OMVs, relative to strain LF82 taken as 100% of 85.2% and a residual invasion level of the LF82-ΔompA mutant in Intestine-407 cells compared to wild-type strain LF82 taken as 100% of 56.3%.
